Measured values taken from PMC10148413 (2023).

B1: Caf1 (protein)
chain: MVDRSDNAAESFDDAVEERVINEEYKIWKKNTPFLYDLVMTHALEWPSLTAQWLPDVTKQDGKDYSVHRLILGTHTSDEQNHLLIASVQLPSEDAQFDGSHYDNEKGEFGGFGSVCGKIEIEIKINHEGEVNRARYMPQNACVIATKTPSSDVLVFDYTKHPSKPEPSGECQPDLRLRGHQKEGYGLSWNPNLNGYLLSASDDHTICLWDINATPKEHRVIDAKNIFTGHTAVVEDVAWHLLHESLFGSVADDQKLMIWDTRNNNTSKPSHTVDAHTAEVNCLSFNPYSEFILATGSADKTVALWDLRNLKLKLHSFESHKDEIFQVQWSPHNETILASSGTDRRLHVWDLSKIGEEQSTEDAEDGPPELLFIHGGHTAKISDFSWNPNEPWIICSVSEDNIMQVWQMAENVYNDEEPEIPASELETNTA
B2: Caf1 (protein)
chain: B1 chain
modifications: H3K4me3

Tests used:
[1] = target: histone H3 (unmodified) (Drosophila melanogaster, UniProt P02299)
[2] = target: histone H3 (K4 trimethylated) (Drosophila melanogaster, UniProt P02299)

Row | Kd [1] | Kd [2] | Binder
1 | ~600 nM | – | B1
2 | – | > 70000 nM | B2
